According to patent US20250289893A1 (OXFORD UNIVERSITY INNOVATION, published 2025):

T1: CD1a[H86 A] (human, UniProt P06126 18-295, limits assumed)
T1 construct: also called point mutant CD1a[H86A]
T1 chain: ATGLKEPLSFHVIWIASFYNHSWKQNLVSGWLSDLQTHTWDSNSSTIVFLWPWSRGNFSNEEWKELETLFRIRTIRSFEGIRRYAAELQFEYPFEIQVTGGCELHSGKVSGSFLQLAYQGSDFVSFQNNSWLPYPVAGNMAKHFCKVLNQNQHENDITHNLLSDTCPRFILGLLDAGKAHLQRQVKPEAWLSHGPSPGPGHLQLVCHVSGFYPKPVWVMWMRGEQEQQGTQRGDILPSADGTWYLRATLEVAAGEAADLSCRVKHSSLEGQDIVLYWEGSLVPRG


How the values were obtained:
[1] = biological target: Chinese variant CD1a protein (human) (UniProt P06126); assay: ELISA, 1 µg/ml antibody
[2] = biological target: T2, human CD1a expressed on cells (human, UniProt P06126 17-327; P61769 21-119); assay: flow cytometry, C1R cells, 100 µg/ml antibody
T2 construct: also called HEK - CD1a; C1R - CD1a

[3] = biological target: chimeric CD1a pool B protein [human CD1a lipid binding domain, mouse CD1d Ig domain] (human; mouse, UniProt P06126 18-201; P11609 205-297, limits assumed); assay: ELISA, 0.1 µg/ml antibody
[4] = biological target: T2, human CD1a expressed on cells; assay: flow cytometry, MOLT4 cells, 10 µg/ml antibody
[5] = biological target: T1, CD1a[H86 A]; assay: epitope mapping experiments (not described)

Sequence of Chinese variant CD1a protein (human) (P06126 18-295, stated change not applied): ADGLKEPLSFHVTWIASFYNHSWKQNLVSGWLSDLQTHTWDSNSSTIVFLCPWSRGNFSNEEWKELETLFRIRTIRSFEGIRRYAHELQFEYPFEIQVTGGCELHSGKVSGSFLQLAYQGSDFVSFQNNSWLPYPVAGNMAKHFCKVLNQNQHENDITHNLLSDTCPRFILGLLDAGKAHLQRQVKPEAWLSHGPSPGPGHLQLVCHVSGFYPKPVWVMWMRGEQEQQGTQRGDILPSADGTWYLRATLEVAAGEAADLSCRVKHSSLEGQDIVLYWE
Sequence of chimeric CD1a pool B protein [human CD1a lipid binding domain, mouse CD1d Ig domain] (P06126 other isoform, or with tags, fused parts or gaps mutant limits assumed): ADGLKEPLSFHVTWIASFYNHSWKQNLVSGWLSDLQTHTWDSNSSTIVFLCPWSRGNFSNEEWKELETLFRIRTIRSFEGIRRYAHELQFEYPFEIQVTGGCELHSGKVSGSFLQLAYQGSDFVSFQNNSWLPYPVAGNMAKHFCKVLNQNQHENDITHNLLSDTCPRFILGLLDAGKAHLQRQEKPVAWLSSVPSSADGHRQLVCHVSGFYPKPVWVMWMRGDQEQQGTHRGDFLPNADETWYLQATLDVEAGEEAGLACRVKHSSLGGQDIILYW

Row | Binder | Optical Density (OD) [1] | Fluorescence Intensity Geomean (normalized to background) [2] | Optical Density (OD) [3] | Fluorescence Intensity Geomean (normalized to background) [4] | binding result [5]
1 | 116 (VR12117) (antibody, V domains shown, also called OX116) VH: QSVEESGGRLVTPGTPLTLTCTVSGFSLSNYAMSWVRQAPGKGLEWIGIIYTTGFTYYASWVKGRFTISKTSTTVDLKITSPTTEDTATYFCARGLATYVSPPTRLDLWGQGTLVTVSS VL: AQVLTQTPSPVSAAVGGTVTINCQASQSIYNSKNLAWYQQKPGQPPKLLIYSASTLASGVPSRFKGSGSGTQFTLTISDLECDDAATYYCQGEFSCSSVDCATFGGGTEVVVK | 1.51 OD | 11.9 fold over background | 1.25 OD | 11.7 fold over background | 
2 | 110 (VR12112) (antibody, V domains shown, also called OX110; antibody 110) VH: QSVEESGGRLVTPGTPLTLTCTVSGFSLSSYAMIWVRQAPGKGLEWIGIINSSDNTHYATWAKGRFTISKTSTTVDLKITSPTTEDTATYFCARDPYDYGYGWYFDLWGPGTLVTVSS VL: AQVLTQTPSPVSAAVGGTVTINCQASQSVFNNKNLAWYQQKPGQPPKLLIYKASTLASGVSSRFKGSGSGTQFALTISGVQCDDAATYYCQGEFSCSSTDCVTFGGGTEVVVK | 1.79 OD | 4.8 fold over background | 1.02 OD | 14.7 fold over background | no binding
3 | 77A (VR11851) (antibody, V domains shown, also called OX77a; antibody 77a) VH: QSVEESGGRLVTPGTPLTLTCTVSGFSLSSYAMSWVRQAPGKGLEWIGIISSSGTTYYASWAKGRFTISKTSTTVDLKITSPTTEDTATYFCARVDYYSSGWGGLWGPGTLVTVSS VL: AVEMTQTPASMSAAVGGTVTIKCQASEDIYSNLAWYQQKPGQPPKLLIYGASTLASGVPSRFKGSGSGTEYTLTISGVQCDDAATYYCQCTYDTSSYGNTFGGGTEMVVE | 0.78 OD | 0.9 fold over background | 1.25 OD | 4.1 fold over background | 
4 | 111 (VR12113) (antibody, V domains shown, also called OX111) VH: QSVEESGGRLVTPGTPLTLTCTASGFSLSTYAMSWVRQAPGKGLEWIGIISSSGSTYYASWAKGRFTISKTSTTVDLKITSPTTEDTATYFCARETWYWLDLWGQGTLVTVSS VL: AVEMTQTPASVSAAVGGTVTINCQASEDIYSNLAWYQQKPGQPPKLLIYGASTLASGVPSRFKGSGSGTEYTLTISGVQCDDAATYYCQCAYDSSSYGTPFGGGTEVVVK | 1.44 OD | 7.3 fold over background | 1.25 OD | 9.3 fold over background | 
